Test results published in patent US10472401B2, “Peptides and combination of peptides for use in immunotherapy against ovarian cancer and other cancers” (immatics biotechnologies GmbH, priority 2015, dated 2019).

Target: HLA-A*02:01 (Homo sapiens, UniProt P04439, D140Y/D185E/D98H/E176V/E277Q/G131W/G231S/I119V/I121R/I166T/I218V/L300P/L318F/N151K/N90K/P208A/P217A/Q86G/Q94H/R138H/R169H/T345S)
Assay: MHC binding assay (UV-ligand exchange, ELISA of stabilized MHC complexes)
Settings: MHC class I binding score; binding to HLA-A*02:01 ranged by peptide exchange yield (UV-ligand exchange, ELISA)
Description: Candidate peptides for T cell based therapies according to the present invention were further tested for their MHC binding capacity (affinity). The individual peptide-MHC complexes were produced by UV-ligand exchange, where a UV-sensitive peptide is cleaved upon UV-irradiation, and exchanged with the peptide of interest as analyzed. Only peptide candidates that can effectively bind and stabilize the peptide-receptive MHC molecules prevent dissociation of the MHC complexes. To determine the yield of the exchange reaction, an ELISA was performed based on the detection of the light chain (β2m) of stabilized MHC complexes. The assay was performed as generally described in Rodenko et al. (Rodenko et al., 2006).
96 well MAXISorp plates (NUNC) were coated over night with 2 ug/ml streptavidin in PBS at room temperature, washed 4× and blocked for 1h at 37° C. in 2% BSA containing blocking buffer. […] Peptide-MHC monomers of the UV-exchange reaction were diluted 100 fold in blocking buffer. Samples were incubated for 1h at 37° C., washed four times, incubated with 2 ug/ml HRP conjugated anti-82m for 1h at 37° C., washed again and detected with TMB solution that is stopped with […]. Absorption was measured at 450 nm. Candidate peptides that show a high exchange yield (preferably higher than 50%, most preferred higher than 75%) are generally preferred for a generation and production of antibodies or fragments thereof, and/or T cell receptors or fragments thereof, as they show sufficient avidity to the MHC molecules and prevent dissociation of the MHC complexes.

| Substance | Peptide exchange |
| --- | --- |
| 434 (KVSNSGITRV; listed as Homo sapiens) [compound 434] | ″++″ (≥20% = ++) |
| 226 (MLYVVPIYL; listed as Homo sapiens) [compound 226] | ″++″ (≥20% = ++) |
| 446 (QLIPALAKV; listed as Homo sapiens) [compound 446] | ″+++″ (≥50% = +++) |
| 49 (YLPAVFEEV; listed as Homo sapiens) [compound 49] | ″+++″ (≥50% = +++) |
| 461 (VMFRTPLASV; listed as Homo sapiens) [compound 461] | ″++″ (≥20% = ++) |
| 305 (SIANFSEFYV; listed as Homo sapiens) [compound 305] | ″++++″ (≥75% = ++++) |
| 492 (SLFDGFADGLGV; listed as Homo sapiens) [compound 492] | ″+++″ (≥50% = +++) |
| 549 (AMLENASDIKL; listed as Homo sapiens) [compound 549] | ″+++″ (≥50% = +++) |
| 528 (SVAEGRALMSV; listed as Homo sapiens) [compound 528] | ″+++″ (≥50% = +++) |
| 22 (IMEENPGIFAV; listed as Homo sapiens) [compound 22] | ″+++″ (≥50% = +++) |
| 127 (KIGDEPPKV; listed as Homo sapiens) [compound 127] | ″++″ (≥20% = ++) |
| 269 (RVLEVGALQAV; listed as Homo sapiens) [compound 269] | ″++″ (≥20% = ++) |
| 89 (YILPTETIYV; listed as Homo sapiens) [compound 89] | ″++++″ (≥75% = ++++) |
| 97 (SLINGSFLV; listed as Homo sapiens) [compound 97] | ″+++″ (≥50% = +++) |
| 306 (ALVNVQIPL; listed as Homo sapiens) [compound 306] | ″+++″ (≥50% = +++) |
| 388 (SLTIDGIRYV; listed as Homo sapiens) [compound 388] | ″+++″ (≥50% = +++) |
| 280 (VLPDPEVLEAV; listed as Homo sapiens) [compound 280] | ″+++″ (≥50% = +++) |
| 472 (KLLEVSDDPQV; listed as Homo sapiens) [compound 472] | ″+++″ (≥50% = +++) |
| 188 (GLFPVTPEAV; listed as Homo sapiens) [compound 188] | ″+++″ (≥50% = +++) |
| 546 (VMIAGKVAVV; listed as Homo sapiens) [compound 546] | ″+++″ (≥50% = +++) |
| 562 (YLEELPEKLKL; listed as Homo sapiens) [compound 562] | ″+++″ (≥50% = +++) |
| 328 (ALNDQVFEI; listed as Homo sapiens) [compound 328] | ″+++″ (≥50% = +++) |
| 152 (ILFEDIFDV; listed as Homo sapiens) [compound 152] | ″+++″ (≥50% = +++) |
| 554 (LLMPSSEDLLL; listed as Homo sapiens) [compound 554] | ″+++″ (≥50% = +++) |

| Substance | Peptide exchange |
| --- | --- |
| 140 (YMDAPKAAL; listed as Homo sapiens) [compound 140] | ″++″ (≥20% = ++) |
| 516 (AVGPASILKEV; listed as Homo sapiens) [compound 516] | ″++″ (≥20% = ++) |
| 265 (LLFGGTKTV; listed as Homo sapiens) [compound 265] | ″++″ (≥20% = ++) |
| 72 (SLLELDGINL; listed as Homo sapiens) [compound 72] | ″+++″ (≥50% = +++) |
| 93 (LLQAIKLYL; listed as Homo sapiens) [compound 93] | ″++″ (≥20% = ++) |
| 573 (ILVANAIVGV; listed as Homo sapiens) [compound 573] | ″+++″ (≥50% = +++) |
| 19 (FMVDNEAIYDI; listed as Homo sapiens) [compound 19] | ″++++″ (≥75% = ++++) |
| 337 (HLLSELEAAPYL; listed as Homo sapiens) [compound 337] | ″++++″ (≥75% = ++++) |
| 27 (ILADIVISA; listed as Homo sapiens) [compound 27] | ″+++″ (≥50% = +++) |
| 442 (GLLGGGGVLGV; listed as Homo sapiens) [compound 442] | ″+++″ (≥50% = +++) |
| 103 (TLAEEVVAL; listed as Homo sapiens) [compound 103] | ″+++″ (≥50% = +++) |
| 330 (QLALKVEGV; listed as Homo sapiens) [compound 330] | ″+++″ (≥50% = +++) |
| 596 (ALLDQTKTLAESAL; listed as Homo sapiens) [compound 596] | ″+++″ (≥50% = +++) |
| 161 (ALLEGVNTV; listed as Homo sapiens) [compound 161] | ″+++″ (≥50% = +++) |
| 198 (KTINKVPTV; listed as Homo sapiens) [compound 198] | ″+++″ (≥50% = +++) |
| 15 (VLLTFKIFL; listed as Homo sapiens) [compound 15] | ″++″ (≥20% = ++) |
| 542 (RVWDISTVSSV; listed as Homo sapiens) [compound 542] | ″+++″ (≥50% = +++) |
| 71 (GILARIASV; listed as Homo sapiens) [compound 71] | ″+++″ (≥50% = +++) |
| 616 (VLIDEVESL; listed as Homo sapiens) [compound 616] | ″+++″ (≥50% = +++) |
| 274 (SLLFSLFEA; listed as Homo sapiens) [compound 274] | ″++″ (≥20% = ++) |
| 580 (LLMENAERV; listed as Homo sapiens) [compound 580] | ″++″ (≥20% = ++) |
| 144 (YIMEPSIFNTL; listed as Homo sapiens) [compound 144] | ″+++″ (≥50% = +++) |
| 310 (FLVDTPLARA; listed as Homo sapiens) [compound 310] | ″++++″ (≥75% = ++++) |
| 44 (ILDPISSGFLL; listed as Homo sapiens) [compound 44] | ″++″ (≥20% = ++) |

| Substance | Peptide exchange |
| --- | --- |
| 26 (ALLELAEEL; listed as Homo sapiens) [compound 26] | ″+++″ (≥50% = +++) |
| 454 (KLPPPPPQA; listed as Homo sapiens) [compound 454] | ″+++″ (≥50% = +++) |
| 468 (YLRSVGDGETV; listed as Homo sapiens) [compound 468] | ″+++″ (≥50% = +++) |
| 354 (LILEGVDTV; listed as Homo sapiens) [compound 354] | ″++″ (≥20% = ++) |
| 136 (YLADPSNLFVV; listed as Homo sapiens) [compound 136] | ″+++″ (≥50% = +++) |
| 206 (VLQEGKLQKLAQL; listed as Homo sapiens) [compound 206] | ″+++″ (≥50% = +++) |
| 506 (KLLGKVETA; listed as Homo sapiens) [compound 506] | ″+++″ (≥50% = +++) |
| 224 (TLIDAQWVL; listed as Homo sapiens) [compound 224] | ″+++″ (≥50% = +++) |
| 139 (SVMEVNSGIYRV; listed as Homo sapiens) [compound 139] | ″+++″ (≥50% = +++) |
| 336 (ILLTAIVQV; listed as Homo sapiens) [compound 336] | ″+++″ (≥50% = +++) |
| 402 (VLFSGALLGL; listed as Homo sapiens) [compound 402] | ″++″ (≥20% = ++) |
| 186 (TLFFQQNAL; listed as Homo sapiens) [compound 186] | ″++″ (≥20% = ++) |
| 221 (ALYEEGLLL; listed as Homo sapiens) [compound 221] | ″++″ (≥20% = ++) |
| 61 (FLQGYQLHL; listed as Homo sapiens) [compound 61] | ″++++″ (≥75% = ++++) |
| 239 (AAFAGKLLSV; listed as Homo sapiens) [compound 239] | ″+++″ (≥50% = +++) |
| 187 (RQISIRGIVGV; listed as Homo sapiens) [compound 187] | ″+++″ (≥50% = +++) |
| 145 (FLATSGTLAGI; listed as Homo sapiens) [compound 145] | ″++″ (≥20% = ++) |
| 501 (LLDPNVKSIFV; listed as Homo sapiens) [compound 501] | ″+++″ (≥50% = +++) |
| 271 (LVYPLELYPA; listed as Homo sapiens) [compound 271] | ″+++″ (≥50% = +++) |
| 231 (FLSPQQPPLLL; listed as Homo sapiens) [compound 231] | ″++″ (≥20% = ++) |
| 407 (YLMDLINFL; listed as Homo sapiens) [compound 407] | ″+++″ (≥50% = +++) |
| 46 (ILTEENIHL; listed as Homo sapiens) [compound 46] | ″+++″ (≥50% = +++) |
| 345 (VIWKALIHL; listed as Homo sapiens) [compound 345] | ″+++″ (≥50% = +++) |
